Substrate in data set [1]: O=C(O)c1c(O)cccc1O
The experiment in a line: LC-MS glucosyltransferase assay. Particulars: 2.5 mM UDP-glucose, optimal conditions (pH 8.0-8.5, 30°C), 0-300 μM substrate. The data set is classed as biochemical, Camellia sinensis.

Substrate in data set [2]: O=C(O)c1ccccc1O
The experiment in a line: LC-MS glucosyltransferase assay. The data set is classed as biochemical, Camellia sinensis. As to conditions: 2.5 mM UDP-glucose, optimal conditions (pH 8.0-8.5, 30°C), 0-300 μM substrate.

In article PMC11908824, “UGT74B5-mediated glucosylation at ortho hydroxyl groups of benzoic acid derivatives regulating plant immunity to anthracnose in tea plants” (Horticulture Research, 2025) one finds Km data, which are given here for one protein.

B1: CsUGT74B5 (rCsUGT74B5) (Camellia sinensis) (protein)
chain: MEQRNHGGHVVVLPYPSQGHINPLLQFAKRLASKGVKATLATTHYTVKSICVPNIAVEPISDGFDNGGFTQARAEDVYLKSLRENGSRTLSQLIEKHKNTNFPINCVVYDSFFPWALDVAKTHGIYGAPFFTNSATVCAIFCHVHHGLVKLPVKVEELPLVLPGIPPLNLVDLPSFVQAPESYPAYLAMKLSQYSNLDKADWVFGNTFEELEGEAVKNVLELWPGKMIGPMVPSAYLDGRIEEDKGYGASLWKPLSSDCAKWLEAKPSQSVVYVSFGSMVSLTEEQMEEMAWGLKGSNLDFIWVVRESEITKLPSEFTNSTAQEKGLIVTWCNQLEMLAHQAIGCFVTHCGWNSTLEGLSLGVPMVGVPKWTDQLTDAKFIEEIWGVGFRAKEDEKGVVRREELMGCLKEVMEGERSVEIRKNCCKWKELAKEAISEGGSSDKSIDEFVEQLKSGNEKGVVKYLTNGNGHY
notes: full CDS in pMAL-c2X (N-terminal MBP fusion, tag cleavage not mentioned), expressed in E. coli Novablue (DE3), amylose resin purified
Regarding B1, the Km in data set [1] stood at 15.26 µM; in data set [2] it was 42.01 µM.

One may read the Km as the substrate concentration at which the rate is half of its maximum.
